Test results reported in the supplement of paper PMC10126150.
± gives the standard deviation of the averaged measurements.

Tested on: ATP
Experiment: switch fluorescence ratio, 500 uM ATP over buffer (Cy3 cluster intensity, sum of 5 cycles each) (fold (ratio)); higher = stronger signal-on switching upon ATP binding; sequences stand for … in TCGTCGGCAGCGTCAGATGTGTATAAGAGACAGTTTTTTTTTTTTTTTTTTTTTTTTT…TC
Conditions: aptamer strand: ATP DNA aptamer (quencher-CACCTGGGGGAGTATTGCGGAGGAAGG + anchor), 100 nM annealed; ATP concentration: 500 uM
How it was run: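 After annealing to 100 nM quencher-labelled ATP aptamer, Cy3-labelled switching-strand clusters on a modified Illumina MiSeq flow-cell were imaged in selection buffer. A second image followed after 15 min with 500 uM ATP at 22 °C, and five such buffer/ATP cycles were done, each separated by NaOH stripping and re-annealing. The fluorescence ratio, averaged per switch-domain sequence, is summed target-cycle over summed buffer-cycle Cy3 intensity per cluster, with clusters outside 100-1000 RFU excluded.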
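Note: ATP exposure 15 min at 22 °C before imaging.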

Sequence | switch fluorescence ratio
ATGTTGAACT | 0.99 ± 0.002
ATGTTGAGCC | 0.9874 ± 0.0022
ATGTTGGGTT | 0.982 ± 0.031
ATGTTGTCTG | 1 ± 0.035
ATGTTGTGGG | 1 ± 0.013
ATGTTGTTAC | 1.01 ± 0.025
ATGTTGTTGA | 0.998 ± 0.024
ATGTTTAAGC | 1.05 ± 0.048
ATGTTTCACA | 0.951 ± 0.011
ATGTTTCTAT | 0.982 ± 0.027
ATGTTTGATT | 0.999 ± 0.047
ATGTTTGGCC | 1.04 ± 0.041
ATGTTTGTAG | 0.979 ± 0.045
ATGTTTTGAA | 0.9789 ± 0.005
ATGTTTTGGG | 1.01 ± 0.024
ATGTTTTTGG | 1.1 ± 0.22
ATTAAAGGGT | 1.005 ± 0.0084
ATTAAATAGA | 1.02 ± 0.014
ATTAAATTGT | 0.9919 ± 0.0062
ATTAACCATT | 1.01 ± 0.014
ATTAACTAAA | 1.02 ± 0.017
ATTAACTTTA | 1.01 ± 0.035
ATTAAGCACC | 1.3 ± 0.079
ATTAAGGCAA | 1.1 ± 0.014
ATTAAGGCTA | 0.983 ± 0.036

Sequence | switch fluorescence ratio
ATTAAGGGGC | 1.02 ± 0.017
ATTAAGTTGA | 0.987 ± 0.041
ATTAATGGCG | 0.9554 ± 0.009
ATTAATTCGT | 0.996 ± 0.071
ATTAATTTTC | 0.997 ± 0.039
ATTACAAATT | 1.03 ± 0.05
ATTACAGGGC | 1.03 ± 0.012
ATTACCCTCG | 1.02 ± 0.035
ATTACCTGTT | 1.03 ± 0.047
ATTACGTACT | 1.77 ± 0.11
ATTACTATGG | 1.02 ± 0.02
ATTACTGTGT | 0.99 ± 0.02
ATTACTTATC | 1.02 ± 0.018
ATTAGAGGGG | 0.9862 ± 0.0067
ATTAGAGGTT | 0.9898 ± 0.0094
ATTAGAGTGT | 0.965 ± 0.04
ATTAGGAAAT | 1.08 ± 0.1
ATTAGGAATG | 1.01 ± 0.027
ATTAGGAGAC | 1.005 ± 0.008
ATTAGGGACT | 0.992 ± 0.035
ATTAGGGGGC | 1.04 ± 0.061
ATTAGGGTGG | 0.992 ± 0.018
ATTAGGGTTT | 1.04 ± 0.061
ATTAGGTCTA | 1 ± 0.014
ATTAGTAGAT | 0.97 ± 0.013

Sequence | switch fluorescence ratio
ATTAGTGGGG | 0.978 ± 0.013
ATTAGTGGGT | 0.9826 ± 0.005
ATTAGTTGTA | 1 ± 0.025
ATTATAAGTG | 0.96 ± 0.016
ATTATACGGG | 1.052 ± 0.007
ATTATATGAC | 1.06 ± 0.05
ATTATATGCG | 0.992 ± 0.0024
ATTATATGGA | 0.956 ± 0.01
ATTATATTTA | 1.02 ± 0.028
ATTATCCCGG | 0.99 ± 0.041
ATTATGAATC | 1.02 ± 0.078
ATTATGGTTT | 1 ± 0.022
ATTATGTAGA | 0.9958 ± 0.0091
ATTATGTCAG | 0.991 ± 0.024
ATTATGTGGC | 0.9803 ± 0.0086
ATTATGTTTA | 1 ± 0.022
ATTATTACGG | 1 ± 0.022
ATTATTCACC | 1.01 ± 0.02
ATTATTCGGA | 1.008 ± 0.0027
ATTATTTTGG | 1.01 ± 0.018
ATTCAAAAAT | 1.04 ± 0.016
ATTCAATCCA | 0.989 ± 0.012
ATTCACATCG | 1.01 ± 0.06
ATTCATGGGA | 1.02 ± 0.031
ATTCATTCGG | 0.992 ± 0.026

Sequence | switch fluorescence ratio
ATTCATTTTC | 1.02 ± 0.015
ATTCCAAGGT | 0.997 ± 0.029
ATTCCAGAGG | 1.01 ± 0.02
ATTCCCAGGG | 2.067 ± 0.017
ATTCCGGGAG | 1.07 ± 0.064
ATTCGATATA | 1.02 ± 0.014
ATTCGATTTT | 0.999 ± 0.019
ATTCGCAGCA | 1.22 ± 0.056
ATTCGCGCTG | 0.994 ± 0.064
ATTCGGACGG | 1.026 ± 0.0055
ATTCGGCCTT | 1.01 ± 0.043
ATTCGGGTTA | 0.99 ± 0.013
ATTCGGTAA | 0.9962 ± 0.0072
ATTCGTATTT | 0.987 ± 0.029
ATTCGTGGG | 1.01 ± 0.017
ATTCGTGGGA | 0.9892 ± 0.0074
ATTCGTTAGA | 0.999 ± 0.011
ATTCTCTTGT | 0.996 ± 0.014
ATTCTGCTGG | 1.01 ± 0.013
ATTCTGTTTT | 0.986 ± 0.028
ATTCTTACCG | 1.09 ± 0.044
ATTCTTGAGA | 0.988 ± 0.034
ATTCTTGTTC | 0.981 ± 0.05
ATTGAAAAGG | 0.96 ± 0.028
ATTGAAGGAG | 0.994 ± 0.023

Sequence | switch fluorescence ratio
ATTGAAGGCG | 1 ± 0.038
ATTGAAGGGC | 0.9661 ± 0.0093
ATTGAATTCG | 1 ± 0.011
ATTGAATTTT | 0.9795 ± 0.0038
ATTGATGCTT | 0.979 ± 0.018
ATTGATGGCG | 0.982 ± 0.06
ATTGATGTCC | 0.976 ± 0.0098
ATTGATTCTT | 1.01 ± 0.051
ATTGATTGAT | 1.02 ± 0.024
ATTGATTTAG | 0.9756 ± 0.0095
ATTGCAATGG | 1.6 ± 0.034
ATTGCAGCTG | 0.9637 ± 0.0015
ATTGCAGGGA | 0.993 ± 0.042
ATTGCAGGTT | 0.965 ± 0.01
ATTGCAGTTG | 0.954 ± 0.013
ATTGCATGCA | 0.985 ± 0.026
ATTGCCCACC | 1.026 ± 0.0086
ATTGCCGGGA | 1.01 ± 0.0089
ATTGCGACAC | 1.23 ± 0.035
ATTGCGTGGT | 0.986 ± 0.024
ATTGCTAAGC | 1.039 ± 0.0054
ATTGCTACTT | 1.031 ± 0.0052
ATTGCTCTGT | 1.04 ± 0.036
ATTGCTTATT | 0.974 ± 0.018
ATTGGACAGT | 1 ± 0.075

Sequence | switch fluorescence ratio
ATTGGACTGG | 0.998 ± 0.057
ATTGGAGGTT | 0.995 ± 0.013
ATTGGCTAGT | 0.966 ± 0.02
ATTGGGAAAA | 1.03 ± 0.019
ATTGGGATGC | 1.04 ± 0.02
ATTGGGCGCG | 0.995 ± 0.018
ATTGGGGGAC | 0.98 ± 0.03
ATTGGGGGAT | 1.02 ± 0.078
ATTGGGGGCC | 0.967 ± 0.028
ATTGGGGGTG | 1.04 ± 0.012
ATTGGGGTGG | 0.935 ± 0.12
ATTGGGGTGT | 1.01 ± 0.022
ATTGGGTAGT | 0.9765 ± 0.0084
ATTGGGTGTT | 1.02 ± 0.029
ATTGGGTTCT | 0.991 ± 0.057
ATTGGTTCCA | 1.03 ± 0.041
ATTGGTTGTG | 0.988 ± 0.035
ATTGTAATAG | 1.04 ± 0.05
ATTGTAGAGT | 0.985 ± 0.026
ATTGTAGTCT | 1.04 ± 0.06
ATTGTATTTG | 1.01 ± 0.034
ATTGTCTGAG | 1.01 ± 0.011
ATTGTCTTTG | 0.982 ± 0.018
ATTGTGACGA | 1.03 ± 0.027
ATTGTGACTG | 0.975 ± 0.037

Sequence | switch fluorescence ratio
ATTGTGCTTG | 1 ± 0.027
ATTGTGGGCC | 0.975 ± 0.023
ATTGTGGTCA | 0.999 ± 0.017
ATTGTTACAG | 1.01 ± 0.016
ATTGTTATTA | 1.028 ± 0.0035
ATTGTTGGGG | 0.967 ± 0.025
ATTGTTGTTC | 1.06 ± 0.057
ATTGTTTACA | 0.969 ± 0.051
ATTGTTTGGG | 1.03 ± 0.019
ATTGTTTTGC | 1.009 ± 0.0025
ATTTAAATCT | 1.02 ± 0.023
ATTTAACGTC | 1.02 ± 0.08
ATTTAACTTA | 1.008 ± 0.0016
ATTTAAGAAG | 0.99 ± 0.032
ATTTAAGGGG | 0.9949 ± 0.0092
ATTTAAGGGT | 0.993 ± 0.032
ATTTAATGGG | 0.99 ± 0.035
ATTTACATCA | 1.02 ± 0.013
ATTTAGCCGC | 1.02 ± 0.017
ATTTAGCTTA | 1.0052 ± 0.00027
ATTTAGTACT | 1.04 ± 0.021
ATTTAGTCAG | 0.9737 ± 0.0053
ATTTAGTTCT | 0.981 ± 0.027
ATTTATGAGG | 1.01 ± 0.016
ATTTATGCAG | 0.9992 ± 0.0035

Sequence | switch fluorescence ratio
ATTTATGTGC | 1.01 ± 0.025
ATTTATTGGC | 1.02 ± 0.042
ATTTATTGGT | 1.007 ± 0.0062
ATTTCAAATA | 1.01 ± 0.043
ATTTCAAATT | 1.02 ± 0.028
ATTTCACGGC | 1.05 ± 0.024
ATTTCAGGTC | 1.02 ± 0.013
ATTTCCATGT | 0.978 ± 0.011
ATTTCCCTGT | 1.01 ± 0.044
ATTTCCGCAG | 3.82 ± 0.56
ATTTCGTAGG | 1.01 ± 0.024
ATTTCTGGGA | 0.982 ± 0.031
ATTTCTTGGG | 0.99703 ± 0.00034
ATTTGAGCGT | 1.02 ± 0.014
ATTTGAGTTG | 0.965 ± 0.01
ATTTGATAGT | 1.007 ± 0.0052
ATTTGCATAC | 2.62 ± 0.39
ATTTGCATGC | 1 ± 0.012
ATTTGCCGGG | 1.031 ± 0.0081
ATTTGCGAAT | 0.966 ± 0.039
ATTTGCGAGG | 1.01 ± 0.017
ATTTGCGGCT | 0.958 ± 0.062
ATTTGCGGTG | 1.01 ± 0.019
ATTTGCTGCG | 0.947 ± 0.087
ATTTGGAAAG | 0.999 ± 0.021
